Measurements as given in the supplement of paper PMC9170038.

Tested on: MS2 coat protein
Test: apparent KD of MS2 coat protein; higher = weaker reporter binding
Settings: Eterna round: R107
Protocol: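 RNA-MaP round R107: designed RNA switches with theophylline, tryptophan, arginine or FMN aptamers are transcribed on-chip within common flanks. They are titrated with SNAP-549-labelled MS2 coat protein in RNA-MaP buffer (100 mM Tris pH 7.5, 80 mM KCl, 4 mM MgCl2), without ligand or with the indicated ligand. Median apparent KD per design.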

[1] = input ligand: theophylline 20 uM
[2] = input ligand: theophylline 2 mM
[3] = input ligand: tryptophan 2.4 mM

AGAUUCGACACGGCCGCCACUCGUGGUGGAUUACCUAGUGUCGAACAUGAGGAUCACCCAUGUACGAGGACCGGGUGUUGAGUCU [XTryp B #18]
apparent KD of MS2 coat protein (input ligand: arginine 13.2 mM): 40.5 nM | apparent KD of MS2 coat protein [1]: 85.6 nM | apparent KD of MS2 coat protein [2]: 86 nM

UUGGGUUUGUGAAGGAGCGGGAAAUAUAUAUAUAUAAUCCUAACAUGAGGAUCACCCAUGUCCCAGGUAGGUCGCGCGGGUUUGG [12.N]
apparent KD of MS2 coat protein (input ligand: arginine 13.2 mM): 46.4 nM | apparent KD of MS2 coat protein (input ligand: none): 60.2 nM | apparent KD of MS2 coat protein [1]: 63.5 nM | apparent KD of MS2 coat protein [2]: 65.5 nM | apparent KD of MS2 coat protein [3]: 51.6 nM

UCUGGUAUGACGGCCGCCACUAGAUCGUGAGAAGCCUGCAUACAUGAGGAUCACCCAUGUCUCACUAGGACCGGGUCAUUCCAAU [theeternabot_sameState_MS2_Trp_B_5]
apparent KD of MS2 coat protein (input ligand: arginine 13.2 mM): 53.8 nM | apparent KD of MS2 coat protein [1]: 105 nM | apparent KD of MS2 coat protein [2]: 119 nM

GGAUAGGACAGAAGGAGCGACGUGAGGCGAAAGCCAAUCCUUCAACAUGAGGAUCACCCAUGUCAGGUAGGUCGCUGUCCUAUCG [ArgBX 5]
apparent KD of MS2 coat protein (input ligand: arginine 13.2 mM): 19.5 nM | apparent KD of MS2 coat protein (input ligand: none): 20.9 nM | apparent KD of MS2 coat protein [1]: 26.4 nM | apparent KD of MS2 coat protein [2]: 22.3 nM | apparent KD of MS2 coat protein [3]: 22.5 nM

AACGUAUACAGAAGGAGCGUGAAUUAUAUUACUCAUUCUUAUACAUGAGGAUCACCCAUGUCACAGGUAGGUCGCUGUAUUCGUA [JR_ExcArginiB_Sub019]
apparent KD of MS2 coat protein (input ligand: arginine 13.2 mM): 81.9 nM | apparent KD of MS2 coat protein (input ligand: none): 106 nM | apparent KD of MS2 coat protein [1]: 91.9 nM | apparent KD of MS2 coat protein [2]: 111 nM | apparent KD of MS2 coat protein [3]: 81.6 nM

CAUCCUAGUACAUGAGGAUCACCCAUGUAUCGAGGACCGGUACGGCCGCCACUCGAAUGGCGGAUCGUUAAUCCUCUAGGAUGGA [Tryp A Ex 4a]
apparent KD of MS2 coat protein (input ligand: arginine 13.2 mM): 11.7 nM | apparent KD of MS2 coat protein [1]: 14 nM | apparent KD of MS2 coat protein [2]: 11.5 nM

UGUAUGUGAUCUGAUACCAGAGUUGAUAAUCUGAGGAUCACCCUGGUAAGGCGAAAGCCACUCCCUUGGCAGCAGAUCGCAUACU
apparent KD of MS2 coat protein (input ligand: arginine 13.2 mM): 106 nM | apparent KD of MS2 coat protein (input ligand: none): 306 nM | apparent KD of MS2 coat protein [1]: 874 nM | apparent KD of MS2 coat protein [2]: 175 nM | apparent KD of MS2 coat protein [3]: 725 nM

UCAGAUGAGGCGGCCGCCACUCGCGGAUAACGAUAGAUUAACAUGAGGAUCACCCAUGUGUCAUGGAGGACCGGGCCCAUGACAU [kjmullin]
apparent KD of MS2 coat protein (input ligand: arginine 13.2 mM): 23.8 nM | apparent KD of MS2 coat protein [1]: 42.3 nM | apparent KD of MS2 coat protein [2]: 35.1 nM

UGGGUACAUGAGGAUCACCCAUGUACUGAAGGAGCGAGAAUUAUCUCAGGUAGGUCGCAGACAUGAGGAUCACCCAUGUAGUAGG [Exclusion Arginine A GF 12]
apparent KD of MS2 coat protein (input ligand: arginine 13.2 mM): 25.3 nM | apparent KD of MS2 coat protein (input ligand: none): 27.3 nM | apparent KD of MS2 coat protein [1]: 30.6 nM | apparent KD of MS2 coat protein [2]: 37.2 nM | apparent KD of MS2 coat protein [3]: 24.2 nM

UAAAACAUGAGGAUCACCCAUGUAAUUGAUACCAGAGUGAUGAUCCUCCCUUGGCAGCAAAACGCUGAUUGAUUACAAUCAGCGA [Mat - Same State Theophlline A - Mod of Eli - D24]
apparent KD of MS2 coat protein (input ligand: arginine 13.2 mM): 36.8 nM | apparent KD of MS2 coat protein [1]: 169 nM | apparent KD of MS2 coat protein [3]: 42.5 nM

AGAGUCUAGUCGGCCGCCACUCAUGUCCAAUGGACAUGAGGAUCACCCAUGUACCAAAGGUACAUGAGGACCGGGACUGGACUCA [Omei Tryp B SS C v4]
apparent KD of MS2 coat protein (input ligand: arginine 13.2 mM): 27.2 nM | apparent KD of MS2 coat protein [1]: 209 nM | apparent KD of MS2 coat protein [2]: 83.3 nM

GGAGCUACGUCGGCCGCCACUAGCGGUUAUUACGUGUACAUGAGGAUCACCCAUGUAAUAUGGCUUAGGACCGGGACGUAGCUCC [Wolverine]
apparent KD of MS2 coat protein (input ligand: arginine 13.2 mM): 21 nM | apparent KD of MS2 coat protein [1]: 29 nM | apparent KD of MS2 coat protein [2]: 27.8 nM

AGUAUCAGUGGAAGGAGCGUCGCGAAUGUCACAUGAGGAUCACCCAUGUCGUCUUGAGCGCGACAGGUAGGUCGCCACGGUAGGC [SS-ArgB4]
apparent KD of MS2 coat protein (input ligand: arginine 13.2 mM): 12.1 nM | apparent KD of MS2 coat protein (input ligand: none): 10.1 nM | apparent KD of MS2 coat protein [1]: 15.9 nM | apparent KD of MS2 coat protein [2]: 14.5 nM | apparent KD of MS2 coat protein [3]: 13.5 nM

CCUAUUCCUACGGAUACCAGACGAUCCGUGGCGUGUGUGAACAUGAGGAUCACCCAUGUAGUCCCUUGGCAGCCGAUGCGGGUAA [theeternabot_exclusion_MS2_Theo_B_10]
apparent KD of MS2 coat protein (input ligand: arginine 13.2 mM): 37.7 nM | apparent KD of MS2 coat protein [1]: 51.4 nM | apparent KD of MS2 coat protein [3]: 33.5 nM

CGAUCUUUCGAAAGAAGGAUCGAGUCUGAUACCAGAGACGAAAGUCUCCCUUGGCAGCAGUGCCAACAUGAGGAUCACCCAUGUU [Theophylline A 10]
apparent KD of MS2 coat protein (input ligand: arginine 13.2 mM): 16.2 nM | apparent KD of MS2 coat protein [1]: 19.1 nM | apparent KD of MS2 coat protein [3]: 15.8 nM

CAUCCACCUGAAGCCUCCCAAUUCCUCGAUACCAGAGGAUUAAGACUCCCUUGGCAGCGAGCUACAUGAGGAUCACCCAUGUGCC [theeternabot_exclusion_MS2_Theo_A_32]
apparent KD of MS2 coat protein (input ligand: arginine 13.2 mM): 17.8 nM | apparent KD of MS2 coat protein [1]: 24.1 nM | apparent KD of MS2 coat protein [3]: 18.2 nM

AAAAUCCUAUCUGAGGAUCACCCAGGUGAAGGAGCGCCCGAAAGGGCAGGUAGGUCGCACCUGAGGAUCACCCUGGUAACCUAAA [ArgEX 10 #DoubleMS2 #OpenEnded #AlternativeMS2]
apparent KD of MS2 coat protein (input ligand: arginine 13.2 mM): 85.7 nM | apparent KD of MS2 coat protein (input ligand: none): 102 nM | apparent KD of MS2 coat protein [1]: 105 nM | apparent KD of MS2 coat protein [2]: 123 nM | apparent KD of MS2 coat protein [3]: 88.5 nM

AAUAAGCAGCUGCAUCAUGGGUGAGCAGAUACCAGCUAGGAAACUAGCCCUUGGCAGCUGCAACAUGAGGAUCACCCAUGUAAUA [(T)'-(M)'-(T1)-(T2)-(M1)-(M2)_Design5]
apparent KD of MS2 coat protein (input ligand: arginine 13.2 mM): 47.1 nM | apparent KD of MS2 coat protein (input ligand: none): 42.7 nM | apparent KD of MS2 coat protein [1]: 108 nM | apparent KD of MS2 coat protein [2]: 46.3 nM | apparent KD of MS2 coat protein [3]: 34.7 nM

UAUCCACAUGAGGAUCACCCAUGUAAGGAAGGAGCGGUGAAUGAACCAGGUAGGUCGCCUUGGUGAGGAUCAUCUAUGGAUUCGU [Exclusion - Arginine A (Freestyle 10)]
apparent KD of MS2 coat protein (input ligand: arginine 13.2 mM): 28 nM | apparent KD of MS2 coat protein (input ligand: none): 36.8 nM | apparent KD of MS2 coat protein [1]: 65.9 nM | apparent KD of MS2 coat protein [2]: 43.5 nM | apparent KD of MS2 coat protein [3]: 41.8 nM

UGUAUGGACUGAAGGAGCGGAAAAUAAACCUGAGGAUCACCCGGGUAAUAGGCGAAAGCCAUCCAGGUAGGUCGCAGUCCAUACU
apparent KD of MS2 coat protein (input ligand: arginine 13.2 mM): 156 nM | apparent KD of MS2 coat protein [1]: 233 nM | apparent KD of MS2 coat protein [2]: 385 nM | apparent KD of MS2 coat protein [3]: 291 nM

UGUACCAUGUCGGCCGCCACUCAUGAUAAACAAGAGGAUCACCCUUGUAGCGUCAAAGACGCUAUGAGGACCGGGACAUGGUACU [TryBS Zipper 2]
apparent KD of MS2 coat protein (input ligand: arginine 13.2 mM): 29.5 nM | apparent KD of MS2 coat protein (input ligand: none): 29.7 nM | apparent KD of MS2 coat protein [1]: 41.2 nM | apparent KD of MS2 coat protein [2]: 43.9 nM | apparent KD of MS2 coat protein [3]: 15.5 nM

UCGUGCAGAGCGGCCGCCACUGUAUUGCGUGCGGAUGACGGAACAUGAGGAUCACCCAUGUUGUUUAGGACCGGGCUUGCCACCA ['xmullin]
apparent KD of MS2 coat protein (input ligand: arginine 13.2 mM): 12.4 nM | apparent KD of MS2 coat protein [1]: 15.9 nM | apparent KD of MS2 coat protein [2]: 14.3 nM

UCGGGCAGAGCGGCCGCCACUGUUUGGCGUGCGGAUGACGGAACAUGAGGAUCACCCAUGUUGAUUAGGACCGGGCUUGCGGAGA [qpqullin]
apparent KD of MS2 coat protein (input ligand: arginine 13.2 mM): 11.3 nM | apparent KD of MS2 coat protein (input ligand: none): 14.7 nM | apparent KD of MS2 coat protein [1]: 24.1 nM | apparent KD of MS2 coat protein [2]: 13.8 nM | apparent KD of MS2 coat protein [3]: 14.7 nM

GUAUCGACAUGAGGAUCACCCAUGUCCGAAGGAGCGUUGGGAACAACAGGUAGGUCGCGGACAUAGAGCAUCCGGAAACGGAUGC [EAA NP+V+V2 #1]
apparent KD of MS2 coat protein (input ligand: arginine 13.2 mM): 10.1 nM | apparent KD of MS2 coat protein (input ligand: none): 14 nM | apparent KD of MS2 coat protein [1]: 16.4 nM | apparent KD of MS2 coat protein [2]: 34.3 nM | apparent KD of MS2 coat protein [3]: 13.9 nM

GACCGAUUAUAGUGCGAUUGUCUUGUGGAAGGAGCGCAGAGGACUGCAGGUAGGUCGCCACAUGAGGAUCACCCAUGUCAGGAUU [Reinorlaan]
apparent KD of MS2 coat protein (input ligand: arginine 13.2 mM): 39.8 nM | apparent KD of MS2 coat protein (input ligand: none): 46 nM | apparent KD of MS2 coat protein [1]: 45.1 nM | apparent KD of MS2 coat protein [2]: 64.8 nM | apparent KD of MS2 coat protein [3]: 40.5 nM

AGAGGUAUACAUGGAAACAUGUAUAUUUCACGAGGACCGGUACGGCCGCCACUCGGUACCGGAAACACAUGAGGAUCACCCAUGU [Ex_TrypA - H1]
apparent KD of MS2 coat protein (input ligand: arginine 13.2 mM): 17 nM | apparent KD of MS2 coat protein [1]: 23.2 nM | apparent KD of MS2 coat protein [2]: 24.3 nM

AACAGACGAGACGAUACCAGUCUCUUAGCGCACAUGAGGAUCACCCAUGUUGGCAAGCUCGACCCUUGGCAGCGUACCUUUGAUC [theeternabot_sameState_MS2_Theo_B_6]
apparent KD of MS2 coat protein (input ligand: arginine 13.2 mM): 23.8 nM | apparent KD of MS2 coat protein [1]: 34.3 nM | apparent KD of MS2 coat protein [3]: 24.3 nM

GCUAGGUCAUCGGCCGCCACUAACGAAGGUUCGAACAUGAGGAUCACCCAUGUGCCACAUGCGCAUAGGACCGGGAUGACCUAGC [SSTB NP+V+V2 #7 +-Same Structure]
apparent KD of MS2 coat protein (input ligand: arginine 13.2 mM): 13.8 nM | apparent KD of MS2 coat protein (input ligand: none): 17.3 nM | apparent KD of MS2 coat protein [1]: 26.2 nM | apparent KD of MS2 coat protein [2]: 20.8 nM | apparent KD of MS2 coat protein [3]: 11.4 nM

ACUUGUGAGUCGGCCGCCACUCACCGGUAGUGUCACUCGUUCACAAACAUGAGGAUCACCCAUGUGAGGACCGGGACAGUCGGGU [theeternabot_exclusion_MS2_Trp_B_28]
apparent KD of MS2 coat protein (input ligand: arginine 13.2 mM): 13.5 nM | apparent KD of MS2 coat protein [1]: 25.4 nM | apparent KD of MS2 coat protein [2]: 16.3 nM
